In article PMC3025356, “Mechanism of the Ca^2+-Dependent Interaction between S100A4 and Tail Fragments of Nonmuscle Myosin Heavy Chain IIA” (Journal of Molecular Biology, 2011):

Legend:
[1] = test system: M111; test: NMR ^1H,^15N HSQC of labelled M111 on addition of full-length S100A4; format: binding, human; conditions: 1.5 molar excess of full-length S100A4
Procedure: Fig. 7 Chemical shift changes in the ^1H,^15N HSQC spectra of ^13C,^15N-labelled M111 on addition of full-length S100A4. Superposition of the spectra in free form (black) and in the presence of a 1.5 molar excess of S100A4 (red). Resonance assignments derived from the analysis of triple-resonance spectra are marked. In addition to sharp intense cross-peaks, the spectra contain broad low-intensity peaks that cannot be assigned due to low sensitivity.
All NMR samples were prepared in 20 mM 4-morpholineethanesulfonic acid, 20 mM NaCl, 5 mM CaCl2, and 5% D2O buffer (pH 6.1). DTT (2 mM) was added to the samples containing S100A4. Titration experiments were carried out at 0.2 mM S100A4 using 10 mM peptide solutions. Spectra for M111 backbone resonance assignments were measured using 0.4 mM protein solution. NMR spectra were obtained at 298 K using Bruker AVANCE DRX 600 or AVANCE DRX 800 spectrometers, which are both equipped with cryoprobes. Proton chemical shifts were referenced to external 2,2-dimethyl-2-silapentane-5-sulfonate. The ^15N and ^13C chemical shifts were referenced indirectly using recommended gyromagnetic ratios.[44] Spectra were processed with TopSpin (Bruker) and analysed using Analysis.[45] Three-dimensional HNCO, HN(CA)CO, HNCA, HN(CO)CA, HNCACB, and HN(CO)CACB experiments were used for the sequential assignment of the backbone NH, N, CO, C^α, and C^β resonances.

[2] = test system: M200 filaments; test: Stopped-flow turbidity, dissociation of M200 filaments on NaCl jump or dilution; format: biochemical, human
Procedure: Fig. 9 Dissociation of M200 filaments by S100A4. (a) Initially, M200 was added (i) from a concentrated stock in 0.5 M NaCl to give a final concentration of 5 μM M200 (with respect to the polypeptide chain) in 100 mM NaCl, 10 mM Hepes, and 0.1 mM Ca^2+ at pH 7.5 and 20 °C. A biphasic rise in turbidity was recorded for 200 s (continuous line). Then 10 μM S100A4 (with respect to monomer concentration) was added (ii), followed by 0.2 mM EGTA (iii) and 1 mM Ca^2+ (iv). […] (b) M200 was diluted (i) into 100 mM NaCl to form filaments as in (a), then 5 μM S100A4 was added (ii), causing a 54% drop in turbidity. A further 5 μM S100A4 (iii) caused turbidity to fall to almost zero. (c) Stopped-flow records monitoring the dissociation of 5 μM M200 filaments on jumping [NaCl] from 100 mM to 120 mM NaCl. Other components of the buffer were 20 mM Hepes, 1 mM Mg^2+, and 100 μM Ca^2+ at pH 7.5 and 20 °C. […] In the presence of 20 μM S100A4 (lower trace), the turbidity decreased by 87% with a rate constant of 0.2 s^− 1.
It is of interest to know whether S100A4 drives depolymerisation solely by binding to free M monomer and allowing the polymer equilibrium to readjust (i.e., via k− 4 and k5), or whether S100A4 also binds to the filament bundle and actively depolymerises an M200 unit (via k6 and k− 7). […] In an attempt to address this question, the dissociation rate of the M200 filament was followed on jumping the NaCl concentration from 100 mM to 120 mM in the absence and in the presence of S100A4 (Fig. 9c). Under these conditions in the absence of S100A4, turbidity dropped to about 50% of its initial value with a profile fitted to a double exponential (k1obs = 0.33 s^− 1 with 12% amplitude and k2obs = 0.037 s^− 1 with 43% amplitude, relative to the total amplitude expected for a full dissociation). Therefore, at the end point of this reaction, the filament concentration decreased by about 2-fold (turbidity is proportional to concentration over this range; Fig. S5b). There should also be a corresponding rise in M200 monomer concentration, but this may be less than accounted for by the loss of filaments if the drop in turbidity was also associated with a rise in small M200 oligomers with a lower specific turbidity. […]

S100A4: recombinant S100A4 expressed in E. coli BL21(DE3)
resonance broadening in M111 on S100A4 addition [1]: additional broadening of resonances in the 1926–1939 region | decrease in turbidity on NaCl jump ([2]; 20 μM S100A4, 5 μM M200, 100 to 120 mM NaCl): 87% | initial rate relative to absence of S100A4 ([2]; 20 μM S100A4, NaCl jump): five times faster than in the absence of S100A4 | kobs, biphasic fit ([2]; 20 μM S100A4, NaCl jump): 0.21 s^− 1 | rate constant (single exponential) ([2]; 20 μM S100A4, NaCl jump): 0.19 s^− 1
